# Assay results taken from US12723078 (University of Texas, dated 2026).
# What was measured:
# LILRA2 on reporter cells [1] = molecular target: T1, LILRA2 on reporter cells (UniProt Q8N149 24-483); assay: flow cytometry on LILR reporter cells, anti-rabbit IgG PE
# T1 construct: whole, on cells
# LILRA1 on reporter cells [2] = molecular target: T2, LILRA1 on reporter cells (UniProt O75019 17-489, limits assumed); assay: as above
# T2 construct: whole, on cells
# [3] = molecular target: T3, recombinant human LILRB1 protein (human, UniProt Q8NHL6 24-461); assay: Octet RED96, LILRB1 at 100, 33.3, 11.1 and 3.7 nM
# T3 construct: ELISA and Octet methods say only 'recombinant LILRB1'; also called recombinant LILRB1; LILRB1 recombinant proteins
# T3 sequence (Q8NHL6 24-461 limits assumed): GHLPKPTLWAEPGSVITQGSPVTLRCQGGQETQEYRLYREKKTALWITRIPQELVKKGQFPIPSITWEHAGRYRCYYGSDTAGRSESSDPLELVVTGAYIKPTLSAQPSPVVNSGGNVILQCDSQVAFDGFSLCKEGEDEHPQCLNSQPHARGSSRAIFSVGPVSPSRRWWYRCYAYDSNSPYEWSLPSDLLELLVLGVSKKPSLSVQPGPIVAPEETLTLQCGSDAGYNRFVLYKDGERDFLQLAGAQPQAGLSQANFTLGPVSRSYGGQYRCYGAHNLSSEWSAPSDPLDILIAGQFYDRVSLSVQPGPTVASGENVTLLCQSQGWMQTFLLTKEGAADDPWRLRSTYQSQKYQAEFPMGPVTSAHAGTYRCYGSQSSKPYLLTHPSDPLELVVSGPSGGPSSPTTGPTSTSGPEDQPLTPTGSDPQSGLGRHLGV
# LILRB5 = molecular target: T4, LILRB5; assay: ELISA
# T4 construct: not the cell-surface form of MOLECULES; also called LILRB5 protein of the ELISA and Octet specificity tests; not shown: Fc or tag of the recombinant LILRB5 construct, if any
# LILRA1 = molecular target: T5, LILRA1 (human, UniProt O75019); assay: ELISA
# T5 construct: not the cell-surface form of MOLECULES; also called LILRA1 protein of the ELISA and Octet specificity tests
# LILRA2 = molecular target: T6, LILRA2 (human, UniProt Q8N149); assay: ELISA
# T6 construct: not the cell-surface form of MOLECULES; also called LILRA2 protein of the ELISA and Octet specificity tests
# T6 sequence (Q8N149 24-449 limits assumed): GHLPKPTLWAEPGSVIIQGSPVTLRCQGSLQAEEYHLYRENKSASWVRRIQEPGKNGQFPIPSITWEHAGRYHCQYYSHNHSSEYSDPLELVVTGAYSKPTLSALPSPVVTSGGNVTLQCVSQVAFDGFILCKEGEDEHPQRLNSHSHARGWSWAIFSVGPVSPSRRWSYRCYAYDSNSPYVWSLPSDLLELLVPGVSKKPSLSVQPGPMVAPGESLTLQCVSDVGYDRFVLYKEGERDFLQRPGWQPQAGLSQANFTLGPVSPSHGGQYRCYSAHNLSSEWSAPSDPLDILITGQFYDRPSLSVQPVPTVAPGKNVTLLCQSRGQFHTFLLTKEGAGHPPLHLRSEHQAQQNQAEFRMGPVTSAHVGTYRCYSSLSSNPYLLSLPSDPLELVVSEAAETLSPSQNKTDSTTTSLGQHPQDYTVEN
# LILRA4 = molecular target: T7, LILRA4 (human, UniProt P59901); assay: ELISA
# T7 construct: not the cell-surface form of MOLECULES; also called LILRA4 protein of the ELISA and Octet specificity tests
# T7 sequence (P59901 24-446 limits assumed): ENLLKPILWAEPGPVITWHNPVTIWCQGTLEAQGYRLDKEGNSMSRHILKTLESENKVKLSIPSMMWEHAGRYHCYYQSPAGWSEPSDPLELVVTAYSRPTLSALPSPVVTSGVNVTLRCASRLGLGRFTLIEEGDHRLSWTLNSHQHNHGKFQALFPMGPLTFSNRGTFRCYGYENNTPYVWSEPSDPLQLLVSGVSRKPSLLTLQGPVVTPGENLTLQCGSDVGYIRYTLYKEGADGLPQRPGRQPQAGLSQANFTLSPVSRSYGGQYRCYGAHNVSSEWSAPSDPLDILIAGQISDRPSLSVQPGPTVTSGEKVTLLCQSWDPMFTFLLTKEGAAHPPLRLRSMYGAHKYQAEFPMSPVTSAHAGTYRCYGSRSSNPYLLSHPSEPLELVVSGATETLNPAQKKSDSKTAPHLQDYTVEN
# [4] = molecular target: T3, recombinant human LILRB1 protein; assay: Octet RED96 (BLI), antibody on protein G biosensors, recombinant LILRB1 in solution, FIG. 2E (not Table 14)
# LILRB2 on reporter cells = molecular target: T8, LILRB2 on reporter cells (UniProt Q8N423 22-597); assay: flow cytometry on LILR reporter cells, 0.5 µg/mL rabbit B1-176, anti-rabbit IgG PE
# T8 construct: whole, on cells; The construct is not described
# LILRA3 on reporter cells = molecular target: T9, LILRA3 on reporter cells (UniProt Q8N6C8 24-439); assay: as above
# T9 construct: whole, on cells
# T9 sequence (Q8N6C8 24-439): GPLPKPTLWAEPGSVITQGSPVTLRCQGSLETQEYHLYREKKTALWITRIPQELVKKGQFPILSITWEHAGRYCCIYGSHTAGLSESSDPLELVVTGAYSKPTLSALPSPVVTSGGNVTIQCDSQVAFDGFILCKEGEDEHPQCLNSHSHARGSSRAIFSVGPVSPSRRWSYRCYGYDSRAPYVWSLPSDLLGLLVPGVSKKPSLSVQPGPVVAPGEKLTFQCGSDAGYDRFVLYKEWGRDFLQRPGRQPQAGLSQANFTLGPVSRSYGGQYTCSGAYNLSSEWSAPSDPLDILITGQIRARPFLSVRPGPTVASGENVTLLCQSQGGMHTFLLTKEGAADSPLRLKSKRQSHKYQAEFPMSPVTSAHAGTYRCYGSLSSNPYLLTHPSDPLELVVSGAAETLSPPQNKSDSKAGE
# [5] = molecular target: T10, LILRB1 expressed on cell surface (human, UniProt Q8NHL6 24-650); assay: as above
# T10 construct: One entry is used for LILRB1 on reporter cells and on NK cells; also called LILRB1 NFAT-GFP reporter cell; LILRB1 reporter cells
# T10 sequence (Q8NHL6 24-650 limits assumed): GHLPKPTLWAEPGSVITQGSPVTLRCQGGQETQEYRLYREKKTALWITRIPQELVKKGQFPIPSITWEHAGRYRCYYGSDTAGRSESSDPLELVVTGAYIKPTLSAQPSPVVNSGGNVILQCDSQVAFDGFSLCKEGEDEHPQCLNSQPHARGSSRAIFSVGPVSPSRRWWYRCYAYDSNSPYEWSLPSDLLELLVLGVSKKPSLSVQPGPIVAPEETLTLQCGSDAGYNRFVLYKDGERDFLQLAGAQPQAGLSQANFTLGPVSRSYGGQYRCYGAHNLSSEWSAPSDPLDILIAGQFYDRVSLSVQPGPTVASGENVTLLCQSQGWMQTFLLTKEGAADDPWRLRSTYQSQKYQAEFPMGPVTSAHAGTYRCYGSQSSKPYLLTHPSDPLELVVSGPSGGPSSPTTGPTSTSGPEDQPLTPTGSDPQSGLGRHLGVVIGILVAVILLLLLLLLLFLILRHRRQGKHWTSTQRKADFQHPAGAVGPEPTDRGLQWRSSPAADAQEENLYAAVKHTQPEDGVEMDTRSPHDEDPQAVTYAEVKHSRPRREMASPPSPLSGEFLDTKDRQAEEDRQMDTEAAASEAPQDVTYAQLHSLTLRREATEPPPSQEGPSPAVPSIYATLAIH
# LILRA2 on reporter cells [6] = molecular target: T1, LILRA2 on reporter cells; assay: as above
# LILRA6 on reporter cells = molecular target: T11, LILRA6 on reporter cells (UniProt Q6PI73 24-481); assay: as above
# T11 construct: whole, on cells
# T11 sequence (Q6PI73 24-481): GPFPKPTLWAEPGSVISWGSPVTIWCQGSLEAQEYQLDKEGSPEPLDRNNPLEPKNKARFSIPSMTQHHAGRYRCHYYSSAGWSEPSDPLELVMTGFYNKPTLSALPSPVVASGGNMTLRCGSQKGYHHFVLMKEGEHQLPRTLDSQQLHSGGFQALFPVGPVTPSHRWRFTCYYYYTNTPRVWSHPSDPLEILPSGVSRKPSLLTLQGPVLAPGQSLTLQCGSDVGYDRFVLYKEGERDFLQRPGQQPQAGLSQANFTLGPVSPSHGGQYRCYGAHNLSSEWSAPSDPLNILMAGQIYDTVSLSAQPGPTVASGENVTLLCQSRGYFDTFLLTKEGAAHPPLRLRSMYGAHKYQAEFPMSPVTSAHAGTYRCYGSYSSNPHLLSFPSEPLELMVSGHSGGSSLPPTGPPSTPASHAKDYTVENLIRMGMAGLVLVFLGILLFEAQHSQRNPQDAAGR
# LILRA4 on reporter cells = molecular target: T12, LILRA4 on reporter cells (UniProt P59901 24-499); assay: as above
# T12 construct: whole, on cells
# LILRB3 on reporter cells = molecular target: T13, LILRB3 on reporter cells (UniProt O75022 24-631, limits assumed); assay: as above
# T13 construct: whole, on cells
# LILRB4 on reporter cells = molecular target: T14, LILRB4 on reporter cells (UniProt Q8NHJ6 22-448); assay: as above
# T14 construct: whole, on cells
# LILRB5 on reporter cells = molecular target: T15, LILRB5 on reporter cells (UniProt O75023 24-590, limits assumed); assay: as above
# T15 construct: whole, on cells
# T15 sequence (O75023 24-590 limits assumed): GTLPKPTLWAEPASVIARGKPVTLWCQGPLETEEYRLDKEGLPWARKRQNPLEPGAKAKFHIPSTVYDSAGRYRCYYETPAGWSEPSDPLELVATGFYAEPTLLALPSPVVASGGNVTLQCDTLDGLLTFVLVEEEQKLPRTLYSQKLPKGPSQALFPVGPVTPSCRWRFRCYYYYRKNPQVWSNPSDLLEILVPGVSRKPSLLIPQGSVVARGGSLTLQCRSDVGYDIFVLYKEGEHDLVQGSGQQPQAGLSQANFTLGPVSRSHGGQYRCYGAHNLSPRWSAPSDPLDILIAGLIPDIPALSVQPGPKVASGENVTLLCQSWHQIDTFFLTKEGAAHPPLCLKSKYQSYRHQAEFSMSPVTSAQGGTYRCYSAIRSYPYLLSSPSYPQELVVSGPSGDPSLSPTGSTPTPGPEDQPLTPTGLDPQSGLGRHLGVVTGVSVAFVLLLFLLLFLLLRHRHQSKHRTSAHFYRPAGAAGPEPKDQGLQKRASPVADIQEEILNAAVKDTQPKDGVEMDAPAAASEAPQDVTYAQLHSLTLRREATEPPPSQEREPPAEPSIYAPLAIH
# LILRA1 on reporter cells [7] = molecular target: T2, LILRA1 on reporter cells; assay: as above
# LILRA5 on reporter cells = molecular target: T16, LILRA5 on reporter cells (UniProt A6NI73 42-299); assay: as above
# T16 construct: whole, on cells
# T16 sequence (A6NI73 42-299): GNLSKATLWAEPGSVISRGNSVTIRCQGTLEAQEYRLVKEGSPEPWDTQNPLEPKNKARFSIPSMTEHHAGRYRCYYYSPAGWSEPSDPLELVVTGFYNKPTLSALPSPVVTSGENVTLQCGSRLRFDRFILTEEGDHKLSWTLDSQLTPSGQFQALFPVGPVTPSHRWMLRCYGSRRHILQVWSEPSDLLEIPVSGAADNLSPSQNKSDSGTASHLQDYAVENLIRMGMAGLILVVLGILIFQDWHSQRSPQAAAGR
# D1-Fc = molecular target: T17, D1-Fc (human, UniProt Q8NHL6); assay: ELISA on LILRB1 domain-Fc fusion proteins
# T17 construct: D1 domain; also called LILRB1 D1-Fc
# D3-Fc = molecular target: T18, D3-Fc (human, UniProt Q8NHL6); assay: ELISA on LILRB1 domain-Fc fusion proteins
# T18 construct: D3 domain; also called LILRB1 D3-Fc
# D2-Fc = molecular target: T19, D2-Fc (human, UniProt Q8NHL6); assay: ELISA on LILRB1 domain-Fc fusion proteins
# T19 construct: D2 domain; also called LILRB1 D2-Fc
# D4SR-Fc = molecular target: T20, D4SR-Fc (human, UniProt Q8NHL6); assay: ELISA on LILRB1 domain-Fc fusion proteins
# T20 construct: D4 and stalk region
# D23-Fc = molecular target: T21, D23-Fc (human, UniProt Q8NHL6); assay: ELISA on LILRB1 domain-Fc fusion proteins
# T21 construct: D2-D3
# D34SR-Fc = molecular target: T22, D34SR-Fc (human, UniProt Q8NHL6); assay: ELISA on LILRB1 domain-Fc fusion proteins
# T22 construct: D3-D4 and stalk region
# SR-Fc = molecular target: T23, SR-Fc (human, UniProt Q8NHL6); assay: ELISA on LILRB1 domain-Fc fusion proteins
# T23 construct: stalk region
# T23 sequence (Q8NHL6 410-461 limits assumed): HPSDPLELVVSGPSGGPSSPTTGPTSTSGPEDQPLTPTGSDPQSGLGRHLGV
# D234SR-Fc = molecular target: T24, D234SR-Fc (human, UniProt Q8NHL6); assay: ELISA on LILRB1 domain-Fc fusion proteins
# T24 construct: D2-D4 and stalk region
# T24 sequence (Q8NHL6 116-461 limits assumed): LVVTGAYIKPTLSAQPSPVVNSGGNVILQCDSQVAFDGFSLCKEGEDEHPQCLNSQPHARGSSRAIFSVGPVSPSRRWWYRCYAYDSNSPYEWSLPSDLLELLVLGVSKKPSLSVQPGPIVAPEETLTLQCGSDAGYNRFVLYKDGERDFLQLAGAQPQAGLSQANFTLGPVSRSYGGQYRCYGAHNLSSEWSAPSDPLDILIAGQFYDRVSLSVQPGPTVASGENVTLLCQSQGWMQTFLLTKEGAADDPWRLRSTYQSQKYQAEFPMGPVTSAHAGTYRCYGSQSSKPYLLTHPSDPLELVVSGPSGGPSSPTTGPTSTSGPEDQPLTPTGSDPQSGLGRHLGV
# T2 sequence (O75019 17-489 limits assumed): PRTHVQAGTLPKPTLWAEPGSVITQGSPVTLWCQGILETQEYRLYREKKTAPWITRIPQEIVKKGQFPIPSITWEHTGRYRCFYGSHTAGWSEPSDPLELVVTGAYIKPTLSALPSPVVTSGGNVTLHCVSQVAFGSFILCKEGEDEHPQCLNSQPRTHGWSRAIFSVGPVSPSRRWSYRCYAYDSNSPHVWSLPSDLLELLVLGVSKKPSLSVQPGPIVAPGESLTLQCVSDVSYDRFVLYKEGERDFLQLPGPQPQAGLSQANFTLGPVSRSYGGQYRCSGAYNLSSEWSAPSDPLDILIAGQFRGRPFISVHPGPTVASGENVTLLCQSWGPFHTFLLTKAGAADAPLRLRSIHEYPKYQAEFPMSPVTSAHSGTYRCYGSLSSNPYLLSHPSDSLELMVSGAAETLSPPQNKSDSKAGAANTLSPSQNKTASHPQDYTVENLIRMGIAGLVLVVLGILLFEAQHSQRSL
# T1 sequence (Q8N149 24-483): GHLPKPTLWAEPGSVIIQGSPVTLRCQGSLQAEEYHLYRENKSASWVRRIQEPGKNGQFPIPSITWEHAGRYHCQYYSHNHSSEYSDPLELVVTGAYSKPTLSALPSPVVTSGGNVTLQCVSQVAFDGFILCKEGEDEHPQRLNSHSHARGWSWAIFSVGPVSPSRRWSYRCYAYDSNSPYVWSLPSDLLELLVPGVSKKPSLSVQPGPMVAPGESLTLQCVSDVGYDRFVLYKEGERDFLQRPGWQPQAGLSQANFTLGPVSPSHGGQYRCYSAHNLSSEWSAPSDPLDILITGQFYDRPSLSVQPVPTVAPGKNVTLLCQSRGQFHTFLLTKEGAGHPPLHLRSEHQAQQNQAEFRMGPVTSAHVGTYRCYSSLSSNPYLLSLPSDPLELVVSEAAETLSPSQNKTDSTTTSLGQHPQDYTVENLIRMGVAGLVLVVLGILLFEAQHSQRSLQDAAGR
binder,measurement,setting,value
"B1-176 rabbit antibody (antibody, V domains shown, Full-length rabbit IgG, kappa; Variable genes were cloned into a rabbit IgG expression vector and expressed in Expi293F cells) VH: QSLEESEGGLVKPGGTLTLTCTASGFSFSSSYCMCWVRQAPGKGLELIACIYTDSSGATYYASWAKGRFTISKSSSTTITLQMTSLTAADTATYFCARGWDYEDPGYTDTTYFSLWGPGTLVTVSS VL: ELDLTQTPSSVEAAVGGTVTIKCQASQTIYTNLAWYQQKPGQPPNLLIYAASTLASGVSSRFKGSGSGTEFTLTISDLECADAATYYCQSYYGSSTTGNGFGGGTEVEIK",binding result,LILRA2 on reporter cells [1],no binding (tested: 0.5 µg/mL)
same,binding result,LILRA1 on reporter cells [2],no binding (tested: 0.5 µg/mL)
same,Kd,[3],< 0.01 nM
same,binding result,LILRB5,no binding (tested: 10^3.0 ng/mL (1000 ng/mL))
same,binding result,LILRA1,no binding (tested: 10^3.0 ng/mL (1000 ng/mL))
same,binding result,LILRA2,no binding (tested: 10^3.0 ng/mL (1000 ng/mL))
same,binding result,LILRA4,no binding (tested: 10^3.0 ng/mL (1000 ng/mL))
same,Kd,[4],~0.01 nM
same,percent of cells in the gate,LILRB2 on reporter cells,0.68%
same,percent of cells in the gate,LILRA3 on reporter cells,0.1%
same,percent of cells in the gate,[5],99%
same,percent of cells in the gate,LILRA2 on reporter cells [6],0.11%
same,percent of cells in the gate,LILRA6 on reporter cells,0.12%
same,percent of cells in the gate,LILRA4 on reporter cells,0.074%
same,percent of cells in the gate,LILRB3 on reporter cells,0.07%
same,percent of cells in the gate,LILRB4 on reporter cells,0.18%
same,percent of cells in the gate,LILRB5 on reporter cells,0.29%
same,percent of cells in the gate,LILRA1 on reporter cells [7],0.12%
same,percent of cells in the gate,LILRA5 on reporter cells,0.1%
same,binding result,D1-Fc,no binding (tested: not given)
same,binding result,D3-Fc,no binding (tested: not given)
same,binding result,D2-Fc,no binding (tested: not given)
same,binding result,D4SR-Fc,no binding (tested: not given)
same,binding result,D23-Fc,no binding (tested: not given)
same,binding result,D34SR-Fc,no binding (tested: not given)
same,binding result,SR-Fc,no binding (tested: not given)
same,binding result,D234SR-Fc,no binding (tested: not given)
